The supplement of paper PMC7877785
± gives the uncertainty stated by the source.

Experiment: self-splicing fitness, log relative to wild type (ln ratio); higher = more splicing; Tetrahymena group I intron in knt gene, E. coli kanamycin selection, DiMSum; sequences stand for … in CUCUCU…GGAGGGAAAAGUUAUCAGGCAUGCACCUGGUAGCUAGUCUUUAAACCAAUAGAUUGCAUCGGUUUAAAAGGCAAGACCGUCAAAUUGCGGGAAAGGGGUCAACAGCCGUUCAGUACCAAGUCUCAGGGGAAACUUUGAGAUGGCCUUGCAAAGGGUAUGGUAAUAAGCUGACGGACAUGGUCCUAACCACGCAGCCAAGUCCUAAGUCAACAGAUCUUCUGUUGAUAUGGAUGCAGUUCACAGACUAAAUGUCGGUCGGGGAAGAUGUAUUCUUCUCAUAAGAUAUAGUCGGACCUCUCCUUAAUGGGAGCUAGCGGAUGAAGUGAUGCAACACUGGAGCCGCUGGGAACUAAUUUGUAUGCGAAAGUAUAUUGAUUAGUUUUGGAGUACUCGUGGUCG
Procedure, shortened: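 Colonies from six replicate transformations of E. coli BL21(DE3) were pooled and amplicon-sequenced on an Illumina HiSeq 2500. The library placed an intron with all eight P1ex-region nucleotides randomised inside the knt kanamycin-resistance gene on pET-22b(+), and cells grew overnight at 37°C or 30°C on LB agar with or without 25 μg/mL kanamycin (plus 100 μg/mL carbenicillin, 50 μM IPTG, 0.2% rhamnose). Fitness is the DiMSum error-weighted combination of wild-type-normalised replicate fold changes, kanamycin versus none.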

| Sequence | self-splicing fitness (ln) (30 °C) | self-splicing fitness (ln) (37 °C) |
| --- | --- | --- |
| CUACAGCAAUAUUACGACGU | -4.63 ± 0.23 | -3.03 ± 0.2 |
| CCCUAGCAAUAUUACGACGU | -3.83 ± 0.29 | -3.29 ± 0.47 |
| CUGAAGCAAUAUUACGGCUC | -2.75 ± 0.16 | -2.52 ± 0.25 |
| UAAGAGCAAUAUUACGUAGC | -4.28 ± 0.31 | -2.71 ± 0.28 |
| ACGGAGCAAUAUUACGUAGG | -3.48 ± 0.26 |  |
| CCCAAGCAAUAUUACGCCGA | -2.01 ± 0.32 |  |
| UAGCAGCAAUAUUACGAGGU | -3.43 ± 0.15 | -1.7 ± 0.13 |
| UAGAAGCAAUAUUACGACAA | -0.512 ± 0.1 | -0.213 ± 0.11 |
| AUCAAGCAAUAUUACGACUA | -0.634 ± 0.076 | 0.132 ± 0.088 |
| UGGAAGCAAUAUUACGCAAC | -3.31 ± 0.32 | -2.05 ± 0.27 |
| AAAGAGCAAUAUUACGUGUU | -4.56 ± 0.36 | -2.66 ± 0.24 |
| AAUUAGCAAUAUUACGCAAG | -0.991 ± 0.13 | -1.4 ± 0.19 |
| CGUUAGCAAUAUUACGAGUG | -1.18 ± 0.078 | 0.184 ± 0.094 |
| CACCAGCAAUAUUACGUGUC | -3.8 ± 0.09 | -3.28 ± 0.11 |
| CCAGAGCAAUAUUACGACUC | -1.93 ± 0.32 | -1.12 ± 0.43 |
| UCUAAGCAAUAUUACGUGCA | -1.2 ± 0.12 | -0.538 ± 0.13 |
| CCAGAGCAAUAUUACGAUUU | -3.77 ± 0.35 | -3.59 ± 0.39 |
| GAUCAGCAAUAUUACGGGCA | -0.237 ± 0.098 | -0.574 ± 0.11 |
| UCGCAGCAAUAUUACGAGGA | -2.88 ± 0.19 | -0.7 ± 0.12 |
| UCUUAGCAAUAUUACGUGUU | -2.67 ± 0.15 | -2.3 ± 0.25 |

| Sequence | self-splicing fitness (ln) (30 °C) | self-splicing fitness (ln) (37 °C) |
| --- | --- | --- |
| AAUAAGCAAUAUUACGCCGU | -1.24 ± 0.11 | -0.293 ± 0.11 |
| UAAGAGCAAUAUUACGCUCG |  | -0.845 ± 0.23 |
| AUUUAGCAAUAUUACGUGUU | -1.73 ± 0.14 | 0.39 ± 0.14 |
| UGUUAGCAAUAUUACGGAAG | -3.18 ± 0.3 | -1.37 ± 0.17 |
| AAAUAGCAAUAUUACGGGUA | -2.15 ± 0.12 | -1.41 ± 0.1 |
| CCCCAGCAAUAUUACGUUAG | -3.99 ± 0.15 | -2.97 ± 0.15 |
| CUAAAGCAAUAUUACGUUCU | -4.08 ± 0.24 | -3.07 ± 0.26 |
| ACAUAGCAAUAUUACGCCGA | -1.38 ± 0.19 | -0.864 ± 0.18 |
| CAAUAGCAAUAUUACGUCUG | -0.324 ± 0.1 | -0.58 ± 0.13 |
| GCUAAGCAAUAUUACGGUAG | -3.12 ± 0.21 | -3.35 ± 0.3 |
| AGGCAGCAAUAUUACGAACG | -1.11 ± 0.14 | 0.48 ± 0.16 |
| GACCAGCAAUAUUACGUUGG | -3.95 ± 0.13 | -2.53 ± 0.12 |
| CAGGAGCAAUAUUACGCACU | -2.54 ± 0.5 | -1.2 ± 0.34 |
| GUACAGCAAUAUUACGCGGA | -2.49 ± 0.21 | -0.988 ± 0.15 |
| GAAGAGCAAUAUUACGCCUC | -3.27 ± 0.32 | -2.96 ± 0.32 |
| GUAGAGCAAUAUUACGAUCG | -2.6 ± 0.15 | -0.951 ± 0.17 |
| GCGUAGCAAUAUUACGCGCG | -3.2 ± 0.26 | -2.42 ± 0.31 |
| AGCCAGCAAUAUUACGAGAU | -3.39 ± 0.18 | -2.28 ± 0.2 |
| CCCAAGCAAUAUUACGGGGU | -3.46 ± 0.12 | -2.35 ± 0.16 |
